From patent US20150266951A1 (SNU R AND DB FOUNDATION, published 2015)
Each block holds one binder with its values, some of them ahead of it.

Experiments:
[1] = biological target: T1, recombinant human IP-10 protein (IFN-γ-inducible protein 10) (human, UniProt P02778 22-98); test: western blot on recombinant human IP-10 protein
T1 construct: also called IP-10 antigen; recombinant IP-10
T1 sequence: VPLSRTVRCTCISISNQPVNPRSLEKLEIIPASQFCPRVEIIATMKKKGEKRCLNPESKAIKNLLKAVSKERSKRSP

[2] = biological target: T2, Epitope 4 of IP-10 (amino acids 61-98), recombinant segment expressed in E. coli from pET41 (human); test: western blot on recombinant IP-10 segments expressed in E. coli
T2 construct: Segment cloned EcoRI/XhoI into PET41 vector and tested as lysate of the expressing E. coli in western blot; any tags from the vector are not described; not shown: vector-coded fusion part of pET41 (GST is run as the negative control)
T2 chain: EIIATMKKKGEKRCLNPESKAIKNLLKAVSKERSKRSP
Method: E. coli expressing each of the 4 epitopes of recombinant IP-10 was suspended in PBS buffer (137 mM NaCl, 2.7 mM KCl, 10 mM Na2HPO4, 2 mM KH2PO4) and the same volume of SDS-gel loading buffer (100 mM Tris-C1 (pH 6.8), 4% SDS, 0.2% bromophenol blue, 20% glycerol, 200 mM DTT) and heated at 100° C. for 5 min. The mixture was then centrifuged at 13,000 rpm for 10 min and the supernatant was separated on 12% SDS-PAGE, and the proteins separated on the gel were transferred to a polyvinylidenfluoride membrane. Western blot was performed using anti-IP-10 antibody and enhanced chemiluminescent reagent.

B1: anti-IP-10 monoclonal antibody #129 (antibody, V domains shown)
VH: QVQLKQSGPGLVQPSQSLSITCTVSGFSLTSYGVHWVRQSPGKGLEWLGVIWSGGSTDYNAAFISRLSISKDNSKSQVFFKMNSLQANDTAIYYCARNWGAMDYWGQGTSVTVSS
VL: DIVMTQSPSSLSVSAGEKVTMSCKSSQSLLNSGNQKNYLAWYQQKPGQPPKLLIYGASTRESGVPDRFTGSGSGTDFTLTISSVQAEDLAVYYCQNDHSYPLTFGAGTKLELKR
notes: Mouse monoclonal antibody from a hybridoma; also called clone #129; clone #129 monoclonal antibody
binding result [1]: binds | binding result [2]: binds

B2: anti-IP-10 monoclonal antibody #77 (antibody, V domains shown)
VH: QIQLVHSGPELKKPGETVKISCKASGYTFTDYSMHWVKQAPGKGLKWMGWINTETGEPTYADDFKGRFAFSLETSASTAYLQINNLKNEDTATYFCARMYDYSYYFDYWGQGTTLTVSS
VL: DIQMTQSPASLSVSVGETVTITCRASENIYSNLAWYQQKQGKSPQLLVYAATNLADGVPSRFSGSGSGTQYSLKINSLQSEDFGSYYCQHFWGTPYTFGGGTKLEIKR
notes: Mouse monoclonal antibody from a hybridoma; also called clone #77; clone #77 monoclonal antibody
binding result [1]: binds | binding result [2]: binds

Further lines, results first:

binding result [1]: binds | binding result [2]: binds
B3: anti-IP-10 monoclonal antibody #116 (antibody, V domains shown)
VH: QVQLQQSGPELVKPGASVKISCKASGYAFSSSWMNWVKQRPGQGLEWIGRIYPGDGDTNYNGKFKGKATLTADKSSSTAYMQLSSLTSVDSAVYFCARIGNYYGSSYLYWYFDVWGAGTTVTVS
VL: DIQMTQSPSSLSASLGGKVTITCKASQDIDKYIAWYQHRPGKGPSLLIHYTSTLQPGIPSRFSGSGSGKNYSFSISNLEPEDIATYYCLQYDNLLLTFGAGTKLELKR
notes: Mouse monoclonal antibody from a hybridoma; also called clone #116; clone #116 monoclonal antibody

binding result [1]: binds | binding result [2]: binds
B4: anti-IP-10 monoclonal antibody #88 (antibody, V domains shown)
VH: EVMLVESGGGLVKPGGSLKLSCTVSGFTFSGYAMSWVRQTPEKRLEWVASITSGGSYTSYPDNMKGRLTISRDNDRNTLDLQMSSLRSEDTAMYFCTRHSPVIASWFAYWGQGTLVHC
VL: DVLMTQTPLSLPVSLGDQASISCRSSQSIVHSNGNTYLEWYLQKPGQSPKLLIYKVSNRFSGVPDRFSGSGSGTDFTLKISRVEAEDMGVYYCFQGSHVPFTFGSGTKLEIKR
notes: Mouse monoclonal antibody from a hybridoma; also called clone #88; clone #88 monoclonal antibody
